Measurements taken from US5180678A, “Uses of substantially pure interleukin-9 receptor” (Ludwig Institute for Cancer Research, priority 1992, dated 1993).

Legend:
IL-9R [1] = target: T1, IL-9R (Mus musculus, UniProt Q01114); test: Competitive binding of radiolabelled rIL-9 to TS1 cells (specificity of IL-9 binding); design: a number of different cell types were tested for the presence of the IL-9R molecule; endogenous in cells; settings: labelled rIL-9 6.1×10^-10 M, 10^6 TS1 cells, 3 h 4° C., no competitor 4083 ± 16
T1 sequence (Q01114 38-468): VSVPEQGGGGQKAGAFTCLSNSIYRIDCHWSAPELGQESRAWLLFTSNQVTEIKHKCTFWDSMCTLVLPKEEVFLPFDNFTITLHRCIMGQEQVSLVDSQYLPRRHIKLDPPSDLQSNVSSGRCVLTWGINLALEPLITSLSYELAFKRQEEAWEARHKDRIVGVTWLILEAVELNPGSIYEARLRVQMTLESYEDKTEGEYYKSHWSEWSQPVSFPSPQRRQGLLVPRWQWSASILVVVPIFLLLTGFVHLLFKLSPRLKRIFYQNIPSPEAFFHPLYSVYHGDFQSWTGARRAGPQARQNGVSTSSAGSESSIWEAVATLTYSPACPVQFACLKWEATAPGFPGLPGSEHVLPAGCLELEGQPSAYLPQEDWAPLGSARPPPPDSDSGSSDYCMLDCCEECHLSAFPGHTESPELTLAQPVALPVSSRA
Description: In order to test whether the radioactive IL-9 would bind to TS1 cells which are mouse cells, which are IL-9 dependent, a competitive assay was carried out. Specifically, rIL-9 was incubated with TS1 cells in 140 ul of DMEM containing BSA (10 mg/ml) and Na3 N (10 mM). In order to determine the level of binding, a 100 fold excess of "cold", i.e., non-radiolabelledIL-9, was also mixed with the material. The rIL-9 was admixed at 6.1×10^-10 M, for three hours at 4° C., with 10^6 TS1 cells. Bound material was separated from free ligand via centrifugation over a layer of dibutyl and dioctyl phthalate (15:I). In addition, the experiments were repeated using various interleukins, interferon-γ ("INF-γ"), tumor necrosis factor ("TNF"), and granulocyte, macrophage colony stimulating factor ("GM-CSF"). All experiments were carried out in triplicate.

IL-9R [2] = target: T1, IL-9R; test: Saturation binding of radiolabelled rIL-9 to TS-1 cells, Scatchard transformation; design: endogenous in cells; host or cells: TS1 cells (mouse, IL-9 dependent)
Description: Experiments were performed to study the saturation binding of rIL-9. In these studies, as depicted in FIGS. 4a and 4b, increasing concentrations of radiolabelled rIL-9 were incubated with TS-1 cells (5×10^6 cells, 4° C. for three hours). This binding assay, as with those described supra. used 140 ul of DMEM containing BSA and Na3 N, also as described supra. Binding plateaued at 1 nM concentration, with half maximal saturation being reached at approximately 100 pM (FIG. 4a).

[3] = radiolabelled rIL-9, 5×10^6 TS-1 cells, 4° C., three hours (FIG. 4a)

With “IL-1α: interleukin tested as competitor of IL-9 binding” the “Bound Radioactivity” value (IL-9R [1]; competitor 8.7 × 10^-8 M) was 4232 ± 177 cpm.

In the case of “IL-4: interleukin tested as competitor of IL-9 binding”, the “Bound Radioactivity” value (IL-9R [1]; competitor 8.0 × 10^-8 M) is reported as 4154 ± 156 cpm.

“IL-5: interleukin tested as competitor of IL-9 binding” was tested, and the “Bound Radioactivity” value (IL-9R [1]; competitor 2.7 × 10^-8 M) was 4642 ± 77 cpm.

“IL-6: interleukin tested as competitor of IL-9 binding” was tested, and the “Bound Radioactivity” value (IL-9R [1]; competitor 6.7 × 10^-8 M) was 4751 ± 61 cpm.

B1: rIL-9: recombinant mouse IL-9 from baculovirus infected Sf9 cells, 22-25 kilodaltons; used unlabelled and 125I-labelled (protein, UniProt P15247 19-144, looked up)
Interleukin-9: QRCSTTWGIRDTNYLIENLKDDPPSKCSCSGNVTSCLCLSVPTDDCTTPCYREGLLQLTNATQKSRLLPVFHRVKRIVEVLKNITCPSFSCEKPCNQTMAGNTLSFLKSLLGTFQKTEMQRQKSRP
modifications: 125I-labelled in some uses
notes: recombinant mouse IL-9 from baculovirus infected Sf9 cells, 22-25 kilodaltons; used unlabelled and 125I-labelled
For B1, the “density of IL-9 receptor” value (IL-9R [2]; Scatchard transformation, 3 runs, TS-1 cells (FIG. 4b)) was 3111±565 /cell, the Kd (IL-9R [2]; Scatchard transformation, 3 runs, TS-1 cells, single class of receptor (FIG. 4b)) was 0.103 ± 0.013 nM and the “concentration at which binding plateaued” value (IL-9R [2]; [3]) was 1 nM. For the same molecule, the half maximal saturation (IL-9R [2]; [3]) was “approximately 100 pM”, the “Bound Radioactivity” value (IL-9R [1]; competitor 1.2 × 10^-9 M) was 733 ± 21 cpm and the “Bound Radioactivity” value (IL-9R [1]; competitor 6.1 × 10^-8 M) was 80 ± 8 cpm.

B2: GM-CSF: granulocyte, macrophage colony stimulating factor tested as competitor of IL-9 binding (protein, UniProt P01587 18-141, looked up)
Granulocyte-macrophage …: APTRSPITVTRPWKHVEAIKEALNLLDDMPVTLNEEVEVVSNEFSFKKLTCVQTRLKIFEQGLRGNFTKLKGALNMTASYYQTYCPPTPETDCETQVTTYADFIDSLKTFLTDIPFECKKPGQK
With B2 the “Bound Radioactivity” value (IL-9R [1]; competitor 6.4 × 10^-8 M) was 4682 ± 63 cpm.

B3: IFN-γ: interferon-γ tested as competitor of IL-9 binding (protein, UniProt P01579 24-161, looked up)
Interferon gamma: QDPYVKEAENLKKYFNAGHSDVADNGTLFLGILKNWKEESDRKIMQSQIVSFYFKLFKNFKDDQSIQKSVETIKEDMNVKFFNSNKKKRDDFEKLTNYSVTDLNVQRKAIHELIQVMAELSPAAKTGKRKRSQMLFRG
With B3 the “Bound Radioactivity” value (IL-9R [1]; competitor 2.4 × 10^-8 M) was 4944 ± 8 cpm.
